Source: patent publication US11661461B2, “Phospho-Rab antibodies, assays and methods of use thereof” (Denali Therapeutics Inc., priority 2017, dated 2023)
Values belong to the molecule of their own block, whether it stands above or below them.

Key:
LRRK2 = target: T1, LRRK2 (Rattus norvegicus, UniProt F1LNJ1); test: 10-day oral dosing study in rats, pT73-Rab10 and pS935-LRRK2 western blot; assay type: in vivo; details: for pT73-Rab10, Brain / pT73-Rab10, Lung / pS935-LRRK2, Brain / pS935-LRRK2, Lung: rats, daily oral 10 days, mean with SEM; for pT73-Rab10, Brain / pT73-Rab10, Lung: normalized to actin and vehicle control group; for pS935-LRRK2, Brain / pS935-LRRK2, Lung: normalized to vinculin and vehicle control group
T1 construct: from tissue; host or cells: rat brain and lung (in vivo dosing)
T1 sequence (F1LNJ1 1-2526): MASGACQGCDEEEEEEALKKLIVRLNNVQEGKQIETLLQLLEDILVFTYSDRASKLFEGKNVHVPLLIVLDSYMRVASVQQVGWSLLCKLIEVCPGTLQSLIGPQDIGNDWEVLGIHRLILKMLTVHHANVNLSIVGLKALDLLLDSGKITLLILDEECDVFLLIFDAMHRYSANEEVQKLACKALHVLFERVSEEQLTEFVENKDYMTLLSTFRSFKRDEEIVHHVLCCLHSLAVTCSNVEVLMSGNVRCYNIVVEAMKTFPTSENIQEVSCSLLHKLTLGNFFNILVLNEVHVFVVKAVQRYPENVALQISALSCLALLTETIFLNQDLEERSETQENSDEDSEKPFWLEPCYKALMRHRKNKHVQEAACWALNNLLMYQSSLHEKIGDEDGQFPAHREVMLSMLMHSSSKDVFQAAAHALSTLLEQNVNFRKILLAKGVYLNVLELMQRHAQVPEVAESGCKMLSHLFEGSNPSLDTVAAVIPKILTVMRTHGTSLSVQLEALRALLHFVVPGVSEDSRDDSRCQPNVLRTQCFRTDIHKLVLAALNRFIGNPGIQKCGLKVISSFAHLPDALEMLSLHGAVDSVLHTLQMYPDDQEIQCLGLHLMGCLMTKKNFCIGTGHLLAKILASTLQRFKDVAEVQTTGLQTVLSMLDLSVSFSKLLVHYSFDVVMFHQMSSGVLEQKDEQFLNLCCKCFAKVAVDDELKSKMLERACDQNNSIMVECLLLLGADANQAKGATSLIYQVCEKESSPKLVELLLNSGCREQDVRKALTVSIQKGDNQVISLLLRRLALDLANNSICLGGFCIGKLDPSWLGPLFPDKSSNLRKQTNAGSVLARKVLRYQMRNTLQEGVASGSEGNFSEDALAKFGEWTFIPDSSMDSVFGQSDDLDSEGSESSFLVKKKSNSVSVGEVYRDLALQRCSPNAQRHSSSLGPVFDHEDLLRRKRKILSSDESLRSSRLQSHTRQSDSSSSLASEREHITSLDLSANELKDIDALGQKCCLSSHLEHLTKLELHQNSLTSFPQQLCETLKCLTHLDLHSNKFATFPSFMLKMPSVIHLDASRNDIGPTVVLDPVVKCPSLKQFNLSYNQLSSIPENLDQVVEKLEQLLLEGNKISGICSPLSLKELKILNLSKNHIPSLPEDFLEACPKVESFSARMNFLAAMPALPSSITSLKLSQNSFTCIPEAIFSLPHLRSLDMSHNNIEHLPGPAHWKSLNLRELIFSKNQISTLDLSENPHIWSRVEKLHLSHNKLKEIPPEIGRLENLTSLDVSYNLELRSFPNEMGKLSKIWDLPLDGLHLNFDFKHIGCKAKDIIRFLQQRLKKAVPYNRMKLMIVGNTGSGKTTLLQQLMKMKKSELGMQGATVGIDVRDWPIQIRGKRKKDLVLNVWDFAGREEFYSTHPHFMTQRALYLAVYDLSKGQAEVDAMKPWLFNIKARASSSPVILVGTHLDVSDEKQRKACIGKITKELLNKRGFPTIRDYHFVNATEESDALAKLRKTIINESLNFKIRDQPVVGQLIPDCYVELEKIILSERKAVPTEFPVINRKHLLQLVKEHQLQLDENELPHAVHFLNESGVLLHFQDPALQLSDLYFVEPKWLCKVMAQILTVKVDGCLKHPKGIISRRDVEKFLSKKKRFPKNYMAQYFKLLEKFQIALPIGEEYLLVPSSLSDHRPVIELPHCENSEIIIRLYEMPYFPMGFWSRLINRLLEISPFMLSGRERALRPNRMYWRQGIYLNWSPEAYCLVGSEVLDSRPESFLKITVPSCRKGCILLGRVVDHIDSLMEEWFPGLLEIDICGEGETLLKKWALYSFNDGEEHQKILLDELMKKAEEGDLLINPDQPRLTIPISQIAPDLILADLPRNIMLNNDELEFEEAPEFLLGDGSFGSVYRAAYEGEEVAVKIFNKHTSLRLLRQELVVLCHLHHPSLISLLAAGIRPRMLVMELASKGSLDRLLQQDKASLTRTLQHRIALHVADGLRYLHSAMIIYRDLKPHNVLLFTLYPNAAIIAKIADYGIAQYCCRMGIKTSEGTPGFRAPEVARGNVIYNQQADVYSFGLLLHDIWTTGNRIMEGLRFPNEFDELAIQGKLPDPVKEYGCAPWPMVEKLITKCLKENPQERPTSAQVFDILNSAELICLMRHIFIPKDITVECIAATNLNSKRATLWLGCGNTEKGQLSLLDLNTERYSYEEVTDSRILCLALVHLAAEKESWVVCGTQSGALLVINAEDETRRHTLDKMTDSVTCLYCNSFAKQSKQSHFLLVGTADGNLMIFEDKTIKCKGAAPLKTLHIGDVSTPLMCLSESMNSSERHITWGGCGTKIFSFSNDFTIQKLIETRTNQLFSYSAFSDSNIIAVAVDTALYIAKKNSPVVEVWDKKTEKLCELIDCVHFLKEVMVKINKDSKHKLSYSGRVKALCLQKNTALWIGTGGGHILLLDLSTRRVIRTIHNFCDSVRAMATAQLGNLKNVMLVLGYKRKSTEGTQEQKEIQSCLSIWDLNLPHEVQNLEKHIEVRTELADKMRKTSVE
Protocol: Dose-dependent inhibition of pT73-Rab10 was tested in a 10-day oral dosing study in rats. Rats were dosed daily with the LRRK2 Inhibitor B at a dose of 10 mg/kg, 30 mg/kg, or 45 mg/kg. Tissues (brain and lung) were harvested, homogenized and analyzed by western blot. […] Signals from dosed groups were normalized to vehicle control group. Data were presented as mean with SEM.

[1] = target: T2, endogenous phosphorylated Rab10 in human PBMC (Homo sapiens, UniProt P61026); test: Western blot of human PBMC with anti-pT73-Rab10 antibodies; assay type: binding; details: for detection of endogenous phosphorylated Rab10 signals in human PBMC by western blot: antibody at 1 ug/ml; for Western blot Human PBMC Ratio of DMSO/LRRK2 inhibitor A (mean ± SEM): band intensity normalized with Actin control for each of DMSO and LRRK2 inhibitor A, antibody 1 ug/ml
T2 construct: Strong endogenous phosphorylated Rab10 or phosphorylated Rab8a in human PBMC; host or cells: human PBMC
T2 sequence (P61026 1-200): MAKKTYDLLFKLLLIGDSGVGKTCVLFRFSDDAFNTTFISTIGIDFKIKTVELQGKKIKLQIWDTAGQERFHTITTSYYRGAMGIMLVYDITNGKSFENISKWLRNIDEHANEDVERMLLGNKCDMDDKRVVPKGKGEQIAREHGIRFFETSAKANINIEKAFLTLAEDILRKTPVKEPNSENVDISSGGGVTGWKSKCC

[2] = target: T3, phosphorylated Rab10 in lysates of HEK cells overexpressing LRRK2 (Homo sapiens, UniProt P61026); test: Sandwich ELISA (diagnostic), HEK cells overexpressing LRRK2; assay type: binding; details: for Sandwich ELISA (diagnostic), Ratio: DMSO / LRRK2 inhibitor A RLU; for Sandwich ELISA (diagnostic) HEK cells overexpressing LRRK2, DMSO (RLU mean ± SD): DMSO treated cells; for Sandwich ELISA (diagnostic) HEK cells overexpressing LRRK2, LRRK2 inhibitor A (RLU mean ± SD): cells treated with LRRK2 inhibitor A
T3 construct: expressed in transfected cells; host or cells: HEK cells overexpressing LRRK2
T3 sequence (P61026 1-200): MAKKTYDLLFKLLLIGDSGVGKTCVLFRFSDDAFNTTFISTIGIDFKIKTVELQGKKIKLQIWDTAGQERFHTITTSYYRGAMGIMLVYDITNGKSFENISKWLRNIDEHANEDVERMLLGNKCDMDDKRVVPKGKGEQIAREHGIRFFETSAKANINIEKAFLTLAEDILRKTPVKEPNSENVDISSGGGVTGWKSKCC
Protocol: Sandwich ELISA (Diagnostic) with Anti-Phospho-Rab10 Antibody as the Capture Antibody:
ELISA plates were prepared by coating white Nunc MaxiSorp 384 well plates (Thermo Fisher #460372/Sigma #P6491) with capture antibody for 1 hour at room temperature on a shaking platform. The capture antibody was purified anti-phospho-Rab10 clone 19-4 diluted to 1 ug/mL in carbonate-bicarbonate buffer, and 15 uL/well of coating solution was added to the plate before incubation. Plates were then washed 3× with TBST on a BioTek plate washer. For all subsequent blocking/incubation steps, Pierce Starting Block T20 (TBS) was used (Thermo Fisher #37543). Plates were blocked […] in this solution using 80 uL/well and washed 3× as before. Afterwards samples of cell lysates were added (neat with no dilution) using 30 uL/well and incubated 1 hour at room temperature on a shaking platform. After another 3× wash detection antibody (Creative Diagnostics DCABH 13141, or Abcam, ab104859, 2 ug/mL) was added using 30 uL/well. After 60 minute incubation at room temperature and washing 3×, the secondary anti-species conjugate was added (anti-rabbit HRP antibody (Jackson ImmunoResearch 111-035-144) diluted 1:20000 in assay diluent) at 30 uL/well. After a 60 minute incubation, plates were washed 3× as before. The HRP substrate (Supersignal ELISA Femto HRP substrate—Thermo Fisher #37075) was prepared during this time by mixing both components and equilibrating to room temperature. 50 uL/well of substrate was added to plates, which then were covered and briefly incubated for 1-2 minutes on a shaker platform. Afterwards plates were read on the Synergy plate reader to measure relative light units (RLU).
Sandwich ELISA (Diagnostic) with Anti-Rab10 (Total) Antibody as the Capture Antibody:
ELISA plates were prepared by coating white Nunc MaxiSorp 384 well plates (Thermo Fisher #460372/Sigma # P6491) with capture antibody overnight at 4° C. on a shaking platform. The capture antibodies (anti-Rab10 antibody from either Creative Diagnostics, DCABH-13141, or Abcam, ab104859) were diluted to […] (or 1:100 if the concentration not known) in carbonate-bicarbonate buffer, and 15 uL/well of coating solution was added to the plate before incubation. After this plates were washed 3× with TBST on a BioTek plate washer. For all subsequent blocking/incubation steps, Pierce Starting Block (TBS) (no Tween added) was used (Thermo Fisher #37542). Plates were blocked for 1 hour at room temperature in this solution using 80 uL/well and washed 3× as before. Afterwards samples were added (with lysates being diluted 1:20 in the assay diluent) using 30 uL/well and incubated 2 hours at room temperature on a shaking platform. After another 3× wash detection antibodies were added (diluted to 1 ug/mL for purified antibodies or 1:2 for supernatants) using 30 uL/well. After 90 minute incubation at room temperature and washing 3× the secondary anti-species conjugate was added (anti-rabbit HRP antibody (Jackson ImmunoResearch 111-035-144) diluted 1:20000 in assay diluent) at 30 uL/well. After a 45 minute incubation plates were washed 3× as before. The HRP substrate (Supersignal ELISA Femto HRP substrate—Thermo Fisher #37075) was prepared during this time by mixing both components and equilibrating to room temperature. 50 uL/well of substrate was added to plates, which then were covered and briefly incubated for 1-2 minutes on a shaker platform. Afterwards plates were read on the Synergy plate reader to measure relative light units (RLU).

pT73-Rab10, Brain (LRRK2; High dose (doses 10, 30, 45 mg/kg), N = 5): 0.225 ± 0.0394
pT73-Rab10, Lung (LRRK2; High dose): 0.109 ± 0.0126
pS935-LRRK2, Brain (LRRK2; High dose): 0.04 ± 0.016
pS935-LRRK2, Lung (LRRK2; High dose): 0.076 ± 0.022
pT73-Rab10, Brain (LRRK2; Low dose (doses 10, 30, 45 mg/kg), N = 6): 0.676 ± 0.102
pT73-Rab10, Lung (LRRK2; Low dose): 0.25 ± 0.0126
pS935-LRRK2, Brain (LRRK2; Low dose): 0.693 ± 0.164
pS935-LRRK2, Lung (LRRK2; Low dose): 0.295 ± 0.026
pT73-Rab10, Brain (LRRK2; Medium dose (doses 10, 30, 45 mg/kg), N = 6): 0.268 ± 0.0745
pT73-Rab10, Lung (LRRK2; Medium dose): 0.133 ± 0.0137
pS935-LRRK2, Brain (LRRK2; Medium dose): 0.086 ± 0.021
pS935-LRRK2, Lung (LRRK2; Medium dose): 0.094 ± 0.012
Molecule: CNc1nc(Nc2cn(C(C)(C)C#N)nc2C)ncc1C(F)(F)F [LRRK2 Inhibitor B, 2-methyl-2-(3-methyl-4-(4-(methylamino)-5-(trifluoromethyl)pyrimidin-2-ylamino)-1H-pyrazol-1-yl)propanenitrile]
dephosphorylation of pS935-LRRK2 and pT73-Rab10 (LRRK2; rats, 10, 30 or 45 mg/kg daily oral, 10 days, brain and lung): comparable dose-dependent dephosphorylation

Western blot Human PBMC Ratio of DMSO/LRRK2 inhibitor A (mean ± SEM) [1]: 3.45 ± 0.53
Sandwich ELISA (diagnostic), Ratio [2]: 23.63
Sandwich ELISA (diagnostic) HEK cells overexpressing LRRK2, DMSO (RLU mean ± SD) [2]: 85175 ± 16412 RLU
Sandwich ELISA (diagnostic) HEK cells overexpressing LRRK2, LRRK2 inhibitor A (RLU mean ± SD) [2]: 3604 ± 1165 RLU
B1: Clone 5: anti-phosphorylated (pT73) Rab10 rabbit monoclonal antibody; VH SEQ ID NO:1, VL SEQ ID NO:5 (antibody, V domains shown)
VH: METGLRWLLLVAVLKGVQCQSVEESGGRLVTPGTPLTLTCTVSGFSLSSYAMVWVRQAPGKGLEYIGLISRSGVTYYATWAKGRFTISKASTTVDLKIASPTTGDTATYFCVRDYDINGWSGFTIWGPGTLVTVSA
VL: MDTRAPTQLLGLLLWLPGAICDPVMTQTPSSTSAAVGGTVTINCQSSQSVYGNNYFSWYQQKPGQPPKLLIYKASTLASGVPSRFKGSGSGTQFTLTISDLECDDAATYYCAGAASDTRFFGGGTELVVN
detection of endogenous phosphorylated Rab10 signals in human PBMC by western blot [1]: detected endogenous phosphorylated Rab signals

Sandwich ELISA (diagnostic), Ratio [2]: 7.20
Sandwich ELISA (diagnostic) HEK cells overexpressing LRRK2, DMSO (RLU mean ± SD) [2]: 13096 ± 1715 RLU
Sandwich ELISA (diagnostic) HEK cells overexpressing LRRK2, LRRK2 inhibitor A (RLU mean ± SD) [2]: 1820 ± 276 RLU
B2: Clone 247-8: anti-phosphorylated (pT73) Rab10 rabbit monoclonal antibody; VH SEQ ID NO:47, VL SEQ ID NO:51 (antibody, V domains shown)
VH: METGLRWLLLVAVLKGVQCQSVEESGGRLVTPGTPLTLTCTVSGFSLSSYAMGWVRQAPGKGLEYIGIISRSGITYYATWAKGRFTISKASTTVDLRIASPTTEDTATFFCVRDYDSSGWSGFNIWGPGTLVTVSL
VL: MDTRAPTQLLGLLLLWLPGAICDPVMTQTPSSTSAAVGGTVTINCQSSQSVYGNNYLSWFQQKPGQPPKLLIYKASTLASGVPSRFKGSGSGTQFTLTISGVQCDDAATYYCAGAYSDNRVFGGGTEVVVK

Western blot Human PBMC Ratio of DMSO/LRRK2 inhibitor A (mean ± SEM) [1]: 3.39 ± 0.89
B3: Clone 19: anti-phosphorylated (pT73) Rab10 rabbit monoclonal antibody; VH SEQ ID NO:11, VL SEQ ID NO:13 (antibody, V domains shown)
VH: METGLRWLLLVAVLKGVQCQSVEESGGRLVTPGTPLTLTCTVSGFSLSSYAMVWVRQAPGKGLEYIGLISRSGVTYYATWAKGRFTISKASTTVDLKIASPTTGDTATYFCVRDYDSAGWSGFTIWGPGTLVTVSA
VL: MDTRAPTQLLGLLLLWLPGAICDPVMTQTPSSTSAAVGGTVTINCQSSQSVYGNNYLSWYQQKPGQPPKLLIYKASTLASGVPSRSVGSGSGTQFTLTISDLECDDAATYYCAGAASDTRFFGGGTELVVN
detection of endogenous phosphorylated Rab10 signals in human PBMC by western blot [1]: detected endogenous phosphorylated Rab signals

Sandwich ELISA (diagnostic), Ratio [2]: 77.37
Sandwich ELISA (diagnostic) HEK cells overexpressing LRRK2, DMSO (RLU mean ± SD) [2]: 212085 ± 27432 RLU
Sandwich ELISA (diagnostic) HEK cells overexpressing LRRK2, LRRK2 inhibitor A (RLU mean ± SD) [2]: 2741 ± 309 RLU
B4: Clone 256-6: anti-phosphorylated (pT73) Rab10 rabbit monoclonal antibody; VH SEQ ID NO:53, VL SEQ ID NO:56 (antibody, V domains shown)
VH: METGLRWLLLVAVLKGVQCQSVEESGGRLVTPGTPLTLTCTVSGFSLSNYAMVWVRQAPGKGLEYIGLISRSGVTYYATWAKGRFTISKASTTVDLKIASPTTGDTATYFCVRDYDANGWSGFTIWGPGTLVTVSA
VL: MDTRAPTQLLGLLLLWLPGAICDPVMTQTPSSTSAAVGGTVTINCQSSQSVYGNNYLSWYQQKPGQPPKLLIYKASTLASGVPSRFKGSGSGTQFTLTISDLDCDDAATYYCAGAASDTRFFGGGTEVVVK

Sandwich ELISA (diagnostic), Ratio [2]: 2.25
Sandwich ELISA (diagnostic) HEK cells overexpressing LRRK2, DMSO (RLU mean ± SD) [2]: 18605 ± 4874 RLU
Sandwich ELISA (diagnostic) HEK cells overexpressing LRRK2, LRRK2 inhibitor A (RLU mean ± SD) [2]: 8265 ± 1428 RLU
B5: Clone 133-2: anti-phosphorylated (pT73) Rab10 rabbit monoclonal antibody; VH SEQ ID NO:31, VL SEQ ID NO:35 (antibody, V domains shown)
VH: METGLRWLLLVAVLKGVQCQEQLVESGGGLVQPEGSLTLTCKASGFDLSSHYYMCWVRQAPGKGLEWIVCISNGSGNTYYASWAKGRFTISKTSSTTVTLHMTSLTVADTATYFCARNFGSNYGDAFDPWGPGTLVTVSS
VL: MDTRAPTQLLGLLLLWLPGATFAQVLTQTPSPVSAAVGGTVTISCQSSKSVYSNNYLSWYQQKPGQPPKLLIYSASILASGVPSRFSGSGSGTQFTLTISGVQCDDAATYYCQGSYAGSGWYIGFGGGTEVVVK

Sandwich ELISA (diagnostic), Ratio [2]: 141.26
Sandwich ELISA (diagnostic) HEK cells overexpressing LRRK2, DMSO (RLU mean ± SD) [2]: 596606 ± 80346 RLU
Sandwich ELISA (diagnostic) HEK cells overexpressing LRRK2, LRRK2 inhibitor A (RLU mean ± SD) [2]: 4223 ± 293 RLU
B6: Clone 153-2: anti-phosphorylated (pT73) Rab10 rabbit monoclonal antibody; VH SEQ ID NO:39, VL SEQ ID NO:43 (antibody, V domains shown)
VH: METGLRWLLLVAVLKGVQCQSVEESGGRLVTPGTPLTLTCTASGFSLSTYYMSWVRQAPGKGLEWIGIINTGGIVHYANWVRGRFTISKTSTTVDLRITSPTAEDTATYFCARAYSADRLDLWGQGTLVTVSS
VL: MDTRAPTQLLGLLLLWLPGATFAAVLTQTPSPVSAAVGGTVTISCQSSESVYGNNRLSWYQQKPGQPPKLLMYYASTLASGVPSRFRGSGSGTQFTLTISDVQCDDAASYYCLGGYKRDSNNAFGGGTEVVVK
